The target of the assay is T1, TLR4:Fc fusion protein (UniProt O00206 24-631).
T1 construct: The composition is not described beyond 'the related TLR4:Fc'; also called the TLR4 fusion protein; not shown: Fc part; not described for TLR4:Fc (only 'related' to TLR2:Fc, which carries mouse IgG2a Fc)
Put plainly: ELISA, Fc fusion plated on plastic, biotinylated ligand as probe, anti-biotin-HRP detection.

T1 sequence (O00206 24-631 limits assumed): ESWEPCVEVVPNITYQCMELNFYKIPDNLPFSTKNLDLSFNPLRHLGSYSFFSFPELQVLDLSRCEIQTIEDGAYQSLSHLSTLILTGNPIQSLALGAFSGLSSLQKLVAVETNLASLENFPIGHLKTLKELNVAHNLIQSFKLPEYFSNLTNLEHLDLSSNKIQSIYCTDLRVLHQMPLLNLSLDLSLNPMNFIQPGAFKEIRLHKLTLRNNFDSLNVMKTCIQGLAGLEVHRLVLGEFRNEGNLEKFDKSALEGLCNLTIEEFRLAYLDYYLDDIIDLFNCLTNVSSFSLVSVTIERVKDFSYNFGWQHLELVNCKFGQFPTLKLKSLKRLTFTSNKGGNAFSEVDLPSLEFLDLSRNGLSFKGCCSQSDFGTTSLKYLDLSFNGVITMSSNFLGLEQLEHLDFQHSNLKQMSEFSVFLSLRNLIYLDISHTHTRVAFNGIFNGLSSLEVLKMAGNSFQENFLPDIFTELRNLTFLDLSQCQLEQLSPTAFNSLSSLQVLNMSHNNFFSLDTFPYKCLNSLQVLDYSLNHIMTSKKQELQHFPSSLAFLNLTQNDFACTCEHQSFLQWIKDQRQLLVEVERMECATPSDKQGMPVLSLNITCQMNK

B1: PorinB from Neisseria meningitidis (ligand)
chain: DVTLYGTIKAGVETSRSVFHQNGQVTEVTTATGIVDLGSKIGFKGQEDLGNGLKAIWQVEQKASIAGTDSGWGNRQSFIGLKGGFGKLRVGRLNSVLKDTGDINPWDSKSDYLGVNKIAEPEARLISVRYDSPEFAGLSGSVQYALNDNAGRHNSESYHAGFNYKNGGFFVQYGGAYKRHHQVQEGLNIEKYQIHRLVSGYDNDALYASVAVQQQDAKLTDASNSHNSQTEVAATLAYRFGNVTPRVSYAHGFKGLVDDADIGNEYDQVVVGAEYDFSKRTSALVSAGWLQEGKGENKFVATAGGVGLRHKF
modifications: biotinylated in the binding assays (sites not given); not stated as biotinylated in the reporter assay
notes: also called biotinylated PorinB; biotinylated Porin
On to B1, for which the binding result is reported as “no binding”.

For the origin of these results see patent US20060099650A1 (UNIVERSITY OF MASSACHUSETTS, published 2006).
